Experimental data from the array DNA melting data of Ke et al..

Assay: melting temperature; melt of duplexes
Details: sodium 0.0675 M; strand 1 µM

Row | Substance | Tm
1 | CGACGTGCCACATGTGCTG+CAGCACATCAAGCACGTCG ((((((((...((((((((+))))))))...)))))))) | 47.7 °C
2 | CGACGTGCCACATGTGCTG+CAGCACATCACGCACGTCG ((((((((...((((((((+))))))))...)))))))) | 46.2 °C
3 | CGACGTGCCACATGTGCTG+CAGCACATCAGGCACGTCG (((((((((..((((((((+))))))))..))))))))) | 53.2 °C
4 | CGACGTGCCACATGTGCTG+CAGCACATCCGGCACGTCG (((((((((..((((((((+))))))))..))))))))) | 52.6 °C
5 | CGACGTGCCACATGTGCTG+CAGCACATCGTGCACGTCG ((((((((...((((((((+))))))))...)))))))) | 46.3 °C
6 | CGACGTGCCACATGTGCTG+CAGCACATCTCGCACGTCG ((((((((.(.((((((((+)))))))).).)))))))) | 46.8 °C
7 | CGACGTGCCACATGTGCTG+CAGCACATCTTGCACGTCG ((((((((.(.((((((((+)))))))).).)))))))) | 47.5 °C
8 | CGACGTGCCACATGTGCTG+CAGCACATGACGCACGTCG ((((((((..(((((((((+)))))))))..)))))))) | 49.5 °C
9 | CGACGTGCCACATGTGCTG+CAGCACATGCGGCACGTCG (((((((((.(((((((((+))))))))).))))))))) | 60.2 °C
10 | CGACGTGCCACATGTGCTG+CAGCACATGGAGCACGTCG ((((((((..(((((((((+)))))))))..)))))))) | 56.1 °C
11 | CGACGTGCCACATGTGCTG+CAGCACATGGCGCACGTCG ((((((((..(((((((((+)))))))))..)))))))) | 54 °C
12 | CGACGTGCCACATGTGCTG+CAGCACATGTCGCACGTCG ((((((((.((((((((((+)))))))))).)))))))) | 56.4 °C
13 | CGACGTGCCACATGTGCTG+CAGCACATGTGGCACGTCG (((((((((((((((((((+))))))))))))))))))) | 66.4 °C
14 | CGACGTGCCACATGTGCTG+CAGCACATGTTGCACGTCG ((((((((.((((((((((+)))))))))).)))))))) | 57.4 °C
15 | CGACGTGCCACATGTGCTG+CAGCACATTAAGCACGTCG ((((((((...((((((((+))))))))...)))))))) | 48.6 °C
16 | CGACGTGCCACATGTGCTG+CAGCACATTCAGCACGTCG ((((((((...((((((((+))))))))...)))))))) | 48.9 °C
17 | CGACGTGCCACATGTGCTG+CAGCACATTCGGCACGTCG (((((((((..((((((((+))))))))..))))))))) | 53.4 °C
18 | CGACGTGCCACATGTGCTG+CAGCACATTGAGCACGTCG ((((((((...((((((((+))))))))...)))))))) | 52.2 °C
19 | CGACGTGCCACATGTGCTG+CAGCACATTTGGCACGTCG ((((((((((.((((((((+)))))))).)))))))))) | 57.6 °C
20 | CGACGTGCCACATGTGCTG+CAGCACATTTTGCACGTCG ((((((((.(.((((((((+)))))))).).)))))))) | 48 °C
21 | CGACGTGCCAGATGTGCTG+CAGCACATAACGCACGTCG ((((((((...((((((((+))))))))...)))))))) | 48.6 °C
22 | CGACGTGCCAGATGTGCTG+CAGCACATACCGCACGTCG ((((((((...((((((((+))))))))...)))))))) | 47.6 °C
23 | CGACGTGCCAGATGTGCTG+CAGCACATACGGCACGTCG (((((((((..((((((((+))))))))..))))))))) | 54.7 °C
24 | CGACGTGCCAGATGTGCTG+CAGCACATAGGGCACGTCG (((((((((..((((((((+))))))))..))))))))) | 55.8 °C
25 | CGACGTGCCAGATGTGCTG+CAGCACATATTGCACGTCG ((((((((.(.((((((((+)))))))).).)))))))) | 50.1 °C
26 | CGACGTGCCAGATGTGCTG+CAGCACATCAAGCACGTCG ((((((((..(((((((((+)))))))))..)))))))) | 53.7 °C

Row | Substance | Tm
27 | CGACGTGCCAGATGTGCTG+CAGCACATCATGCACGTCG ((((((((..(((((((((+)))))))))..)))))))) | 53.4 °C
28 | CGACGTGCCAGATGTGCTG+CAGCACATCCCGCACGTCG ((((((((..(((((((((+)))))))))..)))))))) | 53.3 °C
29 | CGACGTGCCAGATGTGCTG+CAGCACATCCTGCACGTCG ((((((((..(((((((((+)))))))))..)))))))) | 54.3 °C
30 | CGACGTGCCAGATGTGCTG+CAGCACATCGGGCACGTCG (((((((((.(((((((((+))))))))).))))))))) | 62.2 °C
31 | CGACGTGCCAGATGTGCTG+CAGCACATCTTGCACGTCG ((((((((.((((((((((+)))))))))).)))))))) | 57 °C
32 | CGACGTGCCAGATGTGCTG+CAGCACATGAAGCACGTCG ((((((((...((((((((+))))))))...)))))))) | 50.5 °C
33 | CGACGTGCCAGATGTGCTG+CAGCACATGAGGCACGTCG (((((((((..((((((((+))))))))..))))))))) | 55.4 °C
34 | CGACGTGCCAGATGTGCTG+CAGCACATGCGGCACGTCG (((((((((..((((((((+))))))))..))))))))) | 54.6 °C
35 | CGACGTGCCAGATGTGCTG+CAGCACATGGCGCACGTCG ((((((((...((((((((+))))))))...)))))))) | 50.4 °C
36 | CGACGTGCCAGATGTGCTG+CAGCACATTAAGCACGTCG ((((((((...((((((((+))))))))...)))))))) | 50.7 °C
37 | CGACGTGCCAGATGTGCTG+CAGCACATTAGGCACGTCG (((((((((..((((((((+))))))))..))))))))) | 56.2 °C
38 | CGACGTGCCAGATGTGCTG+CAGCACATTATGCACGTCG ((((((((...((((((((+))))))))...)))))))) | 50.5 °C
39 | CGACGTGCCAGATGTGCTG+CAGCACATTCAGCACGTCG ((((((((...((((((((+))))))))...)))))))) | 50.7 °C
40 | CGACGTGCCAGATGTGCTG+CAGCACATTCCGCACGTCG ((((((((...((((((((+))))))))...)))))))) | 49.6 °C
41 | CGACGTGCCAGATGTGCTG+CAGCACATTCGGCACGTCG (((((((((..((((((((+))))))))..))))))))) | 56.2 °C
42 | CGACGTGCCAGATGTGCTG+CAGCACATTGAGCACGTCG ((((((((...((((((((+))))))))...)))))))) | 52.1 °C
43 | CGACGTGCCAGATGTGCTG+CAGCACATTGCGCACGTCG ((((((((...((((((((+))))))))...)))))))) | 51.2 °C
44 | CGACGTGCCAGATGTGCTG+CAGCACATTTCGCACGTCG ((((((((.(.((((((((+)))))))).).)))))))) | 49.6 °C
45 | CGACGTGCCATATGTGCTG+CAGCACATAAAGCACGTCG ((((((((..(((((((((+)))))))))..)))))))) | 51.3 °C
46 | CGACGTGCCATATGTGCTG+CAGCACATACGGCACGTCG (((((((((.(((((((((+))))))))).))))))))) | 55.3 °C
47 | CGACGTGCCATATGTGCTG+CAGCACATAGCGCACGTCG ((((((((..(((((((((+)))))))))..)))))))) | 50 °C
48 | CGACGTGCCATATGTGCTG+CAGCACATAGTGCACGTCG ((((((((..(((((((((+)))))))))..)))))))) | 47.1 °C
49 | CGACGTGCCATATGTGCTG+CAGCACATATAGCACGTCG ((((((((.((((((((((+)))))))))).)))))))) | 53.2 °C
50 | CGACGTGCCATATGTGCTG+CAGCACATCCTGCACGTCG ((((((((...((((((((+))))))))...)))))))) | 47.7 °C
51 | CGACGTGCCATATGTGCTG+CAGCACATCGAGCACGTCG ((((((((...((((((((+))))))))...)))))))) | 49.8 °C
52 | CGACGTGCCATATGTGCTG+CAGCACATCGTGCACGTCG ((((((((...((((((((+))))))))...)))))))) | 44.2 °C
